The source of these data is publication PMC2854584.

pKd: −log10 of the molar value.

In test [1] the target is CD4-Ig. Kind of test: pull-down.
For test [2], the target named is HIV-1YU2 gp41 transmembrane envelope glycoprotein (HIV-1 YU2) (UniProt P35961). Kind of test: gp120-gp41 association index.
The target in test [3] is soluble CD4 (UniProt P01730). The experiment in a line: SPR.
The target of test [4] is CCR5 (UniProt P51681). Kind of test: radioligand binding.

Regarding HIV-1YU2 gp120 T77A (natural protein), the CD4-Ig binding (relative to wild type) in test [1] was determined as 1.52.
In test [1], HIV-1YU2 gp120 F53A (natural protein) returned a CD4-Ig binding (relative to wild type) of 0.29. This substance also had an association index (relative to wild type) in test [2] of 0.25.
In test [1], HIV-1YU2 gp120 L52A (natural protein) registered a CD4-Ig binding (relative to wild type) of 0.23. Moreover, in test [2], the association index (relative to wild type) was 0.25.
In the case of HIV-1YU2 gp120 D113A (natural protein), the CD4-Ig binding (relative to wild type) in test [1] came to 1.79.
The substance HIV-1YU2 gp120 V89A (natural protein) registered a CD4-Ig binding (relative to wild type) in test [1] of 0.97.
Same read-out and setting: in the case of HIV-1YU2 gp120 A60G (natural protein) it was 1.46.
The same measure, in the same setting: the figure for HIV-1YU2 gp120 T63A (natural protein) is 1.79.
In test [1], HIV-1YU2 gp120 S375W (natural protein) showed a CD4-Ig binding (relative to wild type) of 1.12. For the same substance, in test [3], the pKd was 10.33, the koff was found to be 6.49e-07 s⁻¹ and the association rate constant (kon) is 13800 M⁻¹ s⁻¹.
HIV-1YU2 gp120 N99A (natural protein) gave a CD4-Ig binding (relative to wild type) in test [1] of 0.97. Moreover, in test [2], the association index (relative to wild type) stood at 0.7.
In test [3], HIV-1YU2 gp120 L111W (natural protein) had a pKd of 6.21 and an on-rate constant (kon) of 2090 M⁻¹ s⁻¹.
Consider “HIV-1YU2 gp120 exterior envelope glycoprotein, wild-type (from UniProt P35961 32-498) (natural protein)”, for which the CD4-Ig binding (relative to wild type) in test [1] worked out at 1.
On the same count and under the same terms, in the case of HIV-1YU2 gp120 Q103R (natural protein) it was 0.74.
For HIV-1YU2 gp120 P79A (natural protein), the CD4-Ig binding (relative to wild type) in test [1] is 1.29. Also, the association index (relative to wild type) in test [2] came out at 0.64.
The like results for HIV-1YU2 gp120 P76A (natural protein) were, in that order, 1.02 and 0.64.
The substance HIV-1YU2 gp120 W112A (natural protein) displayed a CD4-Ig binding (relative to wild type) in test [1] of 0.25.
Same read-out and setting: the figure for HIV-1YU2 gp120 I108A (natural protein) is 1.48.
As to HIV-1YU2 gp120 T51A (natural protein), the CD4-Ig binding (relative to wild type) in test [1] is 1.02. The same substance returned an association index (relative to wild type) in test [2] of 1.06.
In turn, HIV-1YU2 gp120 S110N (natural protein) returned an association index (relative to wild type) in test [2] of 0.66.
For HIV-1YU2 gp120 L111F (natural protein), in test [3], the pKd is 7.88, the koff was 0.000204 s⁻¹ and the kon was 15300 M⁻¹ s⁻¹.
In turn, HIV-1YU2 gp120 T71A (natural protein) returned a CD4-Ig binding (relative to wild type) in test [1] of 0.85.
Turning to HIV-1YU2 gp120 D57A (natural protein), the CD4-Ig binding (relative to wild type) in test [1] is 0.91. In test [2], this substance registered an association index (relative to wild type) of 0.62.
In turn, HIV-1YU2 gp120 P212A (natural protein) displayed a CD4-Ig binding (relative to wild type) in test [1] of 0.65.
On the same count and under the same terms, in the case of HIV-1YU2 gp120 F223A (natural protein) it was 0.85.
In test [3], HIV-1YU2 gp120 H66A (natural protein) showed a pKd of 6.76, a koff of 0.000569 s⁻¹ and a kon of 3320 M⁻¹ s⁻¹.
The substance HIV-1YU2 gp120 I109A (natural protein) came in with a CD4-Ig binding (relative to wild type) in test [1] of 0.49.
In test [1], HIV-1YU2 gp120 S115A (natural protein) had a CD4-Ig binding (relative to wild type) of 1.36. This substance also displayed an association index (relative to wild type) in test [2] of 1.12.
The substance “HIV-1YU2 gp120 W69L/S375W (natural protein)” displayed a CD4-Ig binding (relative to wild type) in test [1] of 1.11. In addition, in test [2], the association index (relative to wild type) is 0.81. In test [3], this substance had a pKd of 9.07, a koff of 9.98e-06 s⁻¹ and a kon of 11800 M⁻¹ s⁻¹.
With “HIV-1YU2 gp120 L111A/S375W (natural protein)”, in test [1], the CD4-Ig binding (relative to wild type) came out at 1.32. For the same substance, in test [3], the pKd was 8.95, the koff is 1.92e-05 s⁻¹ and the kon amounted to 17100 M⁻¹ s⁻¹.
Regarding HIV-1YU2 gp120 D78A (natural protein), the CD4-Ig binding (relative to wild type) in test [1] was determined as 1.13.
With HIV-1YU2 gp120 D107A (natural protein), the CD4-Ig binding (relative to wild type) in test [1] came out at 0.66. In addition, the fold reduction of CCR5 binding against wt gp120 in test [4] worked out at 2 fold. In test [3], this substance had a pKd of 7.13, a koff of 0.00142 s⁻¹ and a kon of 19100 M⁻¹ s⁻¹.
As for HIV-1YU2 gp120 D107Q (natural protein), the CD4-Ig binding (relative to wild type) in test [1] is 0.69.
In test [1], HIV-1YU2 gp120 Y61A (natural protein) came in with a CD4-Ig binding (relative to wild type) of 1.33. The association index (relative to wild type) in test [2] was 0.89.
In test [2], HIV-1YU2 gp120 E47A (natural protein) displayed an association index (relative to wild type) of 0.64.
For HIV-1YU2 gp120 L111A (natural protein), the fold reduction of CCR5 binding against wt gp120 in test [4] turned out to be 2 fold. In addition, in test [2], the association index (relative to wild type) amounted to 0.28. In test [3], this substance showed a pKd of 7.49, a dissociation rate constant (koff) of 0.000426 s⁻¹ and a kon of 13200 M⁻¹ s⁻¹.
As for “HIV-1YU2 gp120 H66A/S375W (natural protein)”, in test [3], the pKd is 8.12, the koff was 5.02e-06 s⁻¹ and the kon came to 655 M⁻¹ s⁻¹.
HIV-1YU2 gp120 F210A (natural protein) registered an association index (relative to wild type) in test [2] of 1.33.
The substance “HIV-1YU2 gp120 D107A/S375W (natural protein)” showed a CD4-Ig binding (relative to wild type) in test [1] of 0.76. The substance further showed an association index (relative to wild type) in test [2] of 0.61.
Consider HIV-1YU2 gp120 E91A (natural protein), for which, in test [1], the CD4-Ig binding (relative to wild type) worked out at 1.45.
The same measure, in the same setting: the figure for HIV-1YU2 gp120 H72A (natural protein) is 1.11.
HIV-1YU2 gp120 A221G (natural protein) displayed a CD4-Ig binding (relative to wild type) in test [1] of 0.76.
Same read-out and setting: in the case of HIV-1YU2 gp120 V68A (natural protein) it was 1.12.
HIV-1YU2 gp120 L116A (natural protein) returned a CD4-Ig binding (relative to wild type) in test [1] of 0.67.
Consider HIV-1YU2 gp120 Q114N (natural protein), for which the CD4-Ig binding (relative to wild type) in test [1] is 1.09. Besides, in test [2], the association index (relative to wild type) came to 0.74.
On to HIV-1YU2 gp120 M104A (natural protein), for which the CD4-Ig binding (relative to wild type) in test [1] is 1.25.
HIV-1YU2 gp120 T49A (natural protein): the CD4-Ig binding (relative to wild type) in test [1] was 1.14. In test [2], this substance showed an association index (relative to wild type) of 1.07.
The like results for HIV-1YU2 gp120 W96A (natural protein) were, in that order, 0.66 and 0.65.
In test [2], HIV-1YU2 gp120 W437R (natural protein) returned an association index (relative to wild type) of 0.64.
In test [1], HIV-1YU2 gp120 A73S (natural protein) returned a CD4-Ig binding (relative to wild type) of 1.19.
Take HIV-1YU2 gp120 Q103A (natural protein): the CD4-Ig binding (relative to wild type) in test [1] turned out to be 1.15. Moreover, the association index (relative to wild type) in test [2] came out at 1.07.
Take “HIV-1YU2 gp120 W69L/L111W (natural protein)”: the association index (relative to wild type) in test [2] is 0.28. In test [3], this substance gave a pKd of 6.06, a koff of 0.000483 s⁻¹ and a kon of 554 M⁻¹ s⁻¹.
HIV-1YU2 gp120 S110W (natural protein) had an association index (relative to wild type) in test [2] of 0.49.
With HIV-1YU2 gp120 Q82A (natural protein), the CD4-Ig binding (relative to wild type) in test [1] is 1.12. Moreover, the association index (relative to wild type) in test [2] is 1.03.
Regarding HIV-1YU2 gp120 W69L (natural protein), the CD4-Ig binding (relative to wild type) in test [1] was 0.64. In test [4], this substance displayed a fold reduction of CCR5 binding against wt gp120 of 2 fold. Besides, in test [2], the association index (relative to wild type) was 0.89. Moreover, in test [3], the pKd is 7.27, the koff was 0.000526 s⁻¹ and the kon is 9690 M⁻¹ s⁻¹.
As to HIV-1YU2 gp120 N80A (natural protein), the CD4-Ig binding (relative to wild type) in test [1] was 1.24. The substance also showed an association index (relative to wild type) in test [2] of 0.65.
